Experimental data: article PMC5118228 (EJNMMI Research, 2016)

Assay: in vivo
Parameters: species or system mice
Details: male, athymic nu/nu, mouse, iv, 0.3 nmol, total radioactivity
Method: Mice were euthanized at 10 and 60 min p.i. […] Blood, organs, and femur-containing femur marrow were collected and counted as described previously. The uptake was expressed as percentage of injected activity per gram of tissue (%IA/g).

C[C@@H](O)[C@H](NC(=O)[C@@H]1CSSC[C@H](NC(=O)[C@@H](Cc2ccccc2)NC(=O)CN2CCN(CC(=O)O)CCN(CC(=O)O)CCN(CC(=O)O)CC2)C(=O)N[C@@H](Cc2ccc(O)cc2)C(=O)N[C@H](Cc2c[nH]c3ccccc23)C(=O)N[C@@H](CCCCN)C(=O)N[C@@H]([C@@H](C)O)C(=O)N1)C(=O)O [^213Bi-DOTATATE, metal not drawn]
tissue uptake at 10 min (renal uptake): 30.8 ± 5.8 %ID/g | tissue uptake at 1 h (renal uptake): 18.4 ± 1.8 %ID/g | tissue uptake at 1 h (stomach uptake): 1.6 ± 0.5 %ID/g
